The results in this text go back to paper PMC9052121 (RSC Advances, 2020).

The term stoichiometry N denotes the number of molecules, sites or subunits per partner or assembly.

The target in the assay is bovine insulin (bovine, UniProt P01317 85-105; P01317 25-54). The assay can be described thus: ITC. (In general: ITC needs no label: the signal is the heat of the interaction.)

Where no end group is shown, it is not given here.

Sequence of bovine insulin (P01317 85-105, chain 1 of 2): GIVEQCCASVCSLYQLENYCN
Sequence of bovine insulin (P01317 25-54, chain 2 of 2): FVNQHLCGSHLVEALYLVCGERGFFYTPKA

B1: B2T_FF (N-DIFF-RYNGKVWWR-C), de novo designed 13-mer beta-hairpin peptide (designed binder)
peptide: Ac-DIFFRYNGKVWWR
Take B1: the binding result is “binds”.

B2: B2T_KV (N-KVYY-RYNGKVWWR-C), de novo designed 13-mer beta-hairpin peptide (designed binder)
peptide: Ac-KVYYRYNGKVWWR
Turning to B2, the binding result is recorded as “binds”.

B3: B2T_TT (N-DITTRYNGKVWWR-C), de novo designed 13-mer beta-hairpin peptide (designed binder)
peptide: Ac-DITTRYNGKVWWR
Consider B3, for which the “stoichiometry N” value is 4 peptides per insulin.
